Consider 4 molecules from US20020090382A1, “Antiviral compounds and methods” (University of Pittsburgh of the Commonwealth System of …, priority 2000, published 2002).

Where a chain is given by its changes, count along the chain named. Names and notes keep the numbering of the source.

One assay relates to CHO-HveA cells. Nature of the assay: Transient complementation of gD-null virus KΔUS3-8Z, entry into CHO-HveA cells (lacZ). Type of assay: cell-based, Chinese hamster. Conditions: relative to wild-type gD (100%) and gD− (0%); KΔUS3-8Z virus, A420 β-galactosidase. The source says:
(§1) In a first transient complementation assay, several cell lines were employed. VD60 cells express wild-type gD endogenously which complements the deleted gD gene of KΔUS3-8Z for plaque formation, but only if the virus can initially infect using the gD product of the transfected gene. Thus, plaque formation on VD60 cells indicates complementation of gD's attachment/entry function by the transfected gene. CHO cells lack gD receptors and are resistant to HSV infection, but CHO cells transduced with HveA or HveC expression plasmids (CHO-HveA and CHO-HveC cells, respectively) are susceptible. KΔUS3-8Z misses the complete gD gene (US6) due to a large deletion extending from US3 to US8 and therefore offers no target for homologous recombination with transfected gD genes or the stable gD gene of VD60 cells. […] Since the progeny virus lacks gD, plaques will not form on these cells and virus entry was therefore determined by measurement of lacZ reporter gene expression.
(§2) To conduct the assay, Vero cells were transfected with LIPOFECTAMINE-PLUS (GIBCO) for 4 h at 37° C., the cell monolayers washed and incubated with DMEM/10% fetal bovine serum (FBS) for 16 h at 37° C., and the transfected cells infected with KΔUS3-8Z at an MOI of 3 for 2 h at 37° C. After removal of the medium and inactivation of residual extracellular virus by incubation of the monolayer with 0.1M glycine (pH 3.0) for 1 min at room temperature, fresh medium was added and the cells incubated at 37° C. for 48 hours. The medium was subsequently removed and temporarily stored on ice while the cells were being lysed by freeze-thawing and sonication. Cell debris was pelleted by low-speed centrifugation and the supernatant combined with the previously stored medium. Virus titers were determined on gD-complementing VD60 cells. Complementing activity was determined by infection of CHO-HveA, CHO-HveC, and control CHO-K cells. Infected cells were lysed in a buffer containing 1% NP-40, 1 mM MgCl2, 50 mM β-mercaptoethanol, and 4 mg/ml β-galatosidase substrate O-nitrophenyl β-D-galactopyranoside (ONPG, Sigma) in a total volume of 50 μl. The enzyme-substrate reaction was carried out at 37° C. and stopped by addition of an equal volume of 1M Na2CO3 after color development. β-galactosidase activity was measured by reading the absorbance at 420 nm. One hundred percent complementation was defined as the difference between the A420 values obtained for the wild-type (pSP72-gD) and negative control (pgD^−) gD plasmids. Relative complementation efficiencies were calculated as 100%×[A420(mutant)−A420(gD^−)]/[A420(wild type)−A420(gD^−)].

For the next assay, the system named is VD60 cells. Nature of the assay: Transient complementation of gD-null virus KΔUS3-8Z, titers on VD60 cells. The format is cell-based. Conditions: relative to wild-type gD (100%) and gD− (0%); KΔUS3-8Z virus.
From the text: as §1, §2

The next assay relates to CHO-HveC cells. Nature of the assay: Transient complementation of gD-null virus KΔUS3-8Z, entry into CHO-HveC cells (lacZ). Type of assay: cell-based, Chinese hamster. To be noted: relative to wild-type gD (100%) and gD− (0%); KΔUS3-8Z virus, A420 β-galactosidase.
From the text: as §1, §2

B1: L25D (protein)
chain: KYALIDASLKMADPNRFRGKDLPVDDQLTDPPGVRRVYHIQAGLPDPFQPPSLPITVYYAVLERACRSVLLNAPSEAPQIVRGASEDVRKQPYNLTIAWFRMGGNCAIPITVMEYTECSYNKSLGACPIRTQPRWNYYDSFSAVSEDNLGFLMHAPAFETAGTYLRLVKINDWTEITQFILEHRAKGSCKYALPLRIPPSACLSPQAYQQGVTVDSIGMLPRFIPENQRTVAVYSLKIAGWHGPKAPYTSTLLPPELSETPNATQPELAPEDPEDSALLEDPVGTVAPQIPPNWHIPSIQDAATPYHPPATPNNMGLIAGAVGGSLLAALVICGIVYWMHRRTRKAPKRIRLPHIREDDQPSSHQPLFY
With B1, the “% Complementation CHO-HveA” value with CHO-HveA cells came to 0%. Besides, in the assay on VD60 cells, the “% Complementation VD60” value came to 10%. For the same molecule, in the assay on CHO-HveC cells, the “% Complementation CHO-HveC” value was found to be 14%.

B2: D26H (protein)
chain: B1 chain with D25L, D26H
In the case of B2, the “% Complementation CHO-HveA” value with CHO-HveA cells is 10%. Further, the “% Complementation VD60” value in the assay on VD60 cells was determined as 17%. Further, the “% Complementation CHO-HveC” value with CHO-HveC cells is reported as 11%.

B3: L25H (protein)
chain: B1 chain with D25H
Regarding B3, in the assay with CHO-HveA cells, the “% Complementation CHO-HveA” value amounted to 0%. Besides, the “% Complementation VD60” value in the assay on VD60 cells was 14%. In the assay with CHO-HveC cells, the “% Complementation CHO-HveC” value is given as 12%.

B4: L25T (protein)
chain: B1 chain with D25T
For the molecule B4, the “% Complementation CHO-HveA” value in the assay on CHO-HveA cells was 0%. In the assay on VD60 cells, the “% Complementation VD60” value came out at 14%. For the same molecule, the “% Complementation CHO-HveC” value in the assay with CHO-HveC cells is 3%.
